B1: 命名为1E4的兔重组单克隆抗体 (antibody, V domains shown)
VH: QSLEESGGRLVTPGTPLTLTCTASGFSLSSYYMSWVRQAPGKGLEYIGIIYDSGSTWYANWAKGRFTISKTSTAVYLEITSPTTEDTATYFCARTGSIYYIWLDLWGQGTLVTVSS
VL: AAVLTQTPSPVSAAVGGSVTISCQSSQTIYKNNDLAWYQQKPGQPPKLLIYEASKLASGVPSRFSGSGSGTQFTLTISGVQCDDAATYYCLGGYDDDDDNTFGGGTEVVVK
notes: In the later assays it was recombinant antibody purified from 293 cells
B2: 命名为1E5的兔重组单克隆抗体 (antibody, V domains shown)
VH: QSVKESAGGLFKPTDTLTLTCTASGFTISSNAITWVRQAPGNGLEWIGGIDSSGSAYYASWAKSRSTITRNTNLNTVTLKMTSLTAADTATYFCAGGSNIWGPGTLVTVSS
VL: DIVMTQTPSSVSAAVGGTVTIKCQASESIYSYLSWYQQKPGQPPKLLIYLASTLDSGVPSRFKGSGSGTQFTLTISDLECADAATYYCQSSYFSSGSSYGNTFGGGTEVVVK
B3: 命名为1E6的兔重组单克隆抗体 (antibody, V domains shown)
VH: QSVEESGGRLVTPGTPLTLACTVSGFDISSYSMSWVRQAPGKGLEWIGSGIIGGSTYYASWAKGRFTISKTSTTVDLKITSPTTEDTATYFCARFAGTSSTDYYDLWGQGTLVTVSS
VL: TQTPSSVEAAVGGTVTIKCQASQSIDSYLAWYQQKPGQPPKLLIYDTSTLASGVSSRFKGSGSGTQFTLTISDLECADAATYYCQNYWIITTFGFGGGTEVVVK
B4: 命名为5D3的兔重组单克隆抗体 (antibody, V domains shown)
VH: GGAEGGLVKPGGSLELCCKASGFSLSNLRVNWVRQAPGKGLEWIGCIISDSSGTTSYASWVNGRFTLSRDIDQNTGCLQLNSLTVADTAMYYCASRVNITSYDLSLWGQGTLVTVSS
VL: AAVLTQTPSPVSAAVGGTVSISCQSSKSVYNNKWLSWFQQKPGQPPKLLIYSASTLASGVPSRFSGSGSGTDFTLTISDVQCDDAATYYCAGGYSGSSDTYSFGGGTEVVVK

Columns and labels:
[1] = biological target: T1, CD123全长蛋白 (细胞膜上CD123) (UniProt P26951 19-378, limits assumed); experiment: flow cytometry on Raji cells, antibody titration
T1 construct: whole, on cells; also called 天然细胞表面CD123蛋白

[2] = biological target: CD123 FC融合标签蛋白 (UniProt P26951); experiment: indirect ELISA, CD123 protein coated at 1 μg/ml, B cell clone supernatant

T1 sequence (P26951 19-378 limits assumed): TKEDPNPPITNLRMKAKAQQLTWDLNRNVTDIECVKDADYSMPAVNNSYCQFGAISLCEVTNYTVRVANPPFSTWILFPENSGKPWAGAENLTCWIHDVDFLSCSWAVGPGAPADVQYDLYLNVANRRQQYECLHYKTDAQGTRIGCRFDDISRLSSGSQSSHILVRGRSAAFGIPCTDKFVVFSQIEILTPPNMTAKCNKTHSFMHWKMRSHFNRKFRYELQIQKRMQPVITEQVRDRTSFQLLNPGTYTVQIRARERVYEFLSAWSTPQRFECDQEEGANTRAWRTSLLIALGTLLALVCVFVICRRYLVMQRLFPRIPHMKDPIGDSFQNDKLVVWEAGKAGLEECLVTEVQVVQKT

Binder	binding result [1]	OD450 [2]
B1	binds	2.1 OD450
B2	binds	1.87 OD450
B3	–	1.53 OD450
B4	–	1.77 OD450
